Each block holds one binder with its values, some of them ahead of it.
Target: T1, human VISTA on the surface of cells (human, UniProt Q9H7M9 33-295)
T1 sequence: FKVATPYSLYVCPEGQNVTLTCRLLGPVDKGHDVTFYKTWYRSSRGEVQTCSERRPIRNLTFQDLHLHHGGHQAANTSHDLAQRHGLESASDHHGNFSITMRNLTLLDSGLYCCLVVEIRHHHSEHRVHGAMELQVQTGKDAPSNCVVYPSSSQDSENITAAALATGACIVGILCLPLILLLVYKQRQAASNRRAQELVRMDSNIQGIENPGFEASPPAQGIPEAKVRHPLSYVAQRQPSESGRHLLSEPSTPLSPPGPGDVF
Test: cell-based or functional assay

B3: VSTB53 (antibody, human IgG1, V domains shown)
VH: QVQLVQSGAEVKKPGASVKVSCKASGYTFTHYTIHWVRQAPGQGLEWMGYIIPSSGYSEYNQKFKDRVTMTRDTSTSTVYMELSSLRSEDTAVYYCARGAYDDYYDYYAMDYWGQGTLVTVSS
VL: DIVMTQSPLSLPVTPGEPASISCRSSQTIVHSNGNTYLEWYLQKPGQSPQLLIYKVSNRFSGVPDRFSGSGSGTDFTLKISRVEAEDVGVYYCFQASHVPWTFGQGTKLEIK
IC50, CPM (proliferation), SEB assay: -1.06 log10 of antibody concentration
IC50, Gamma (IFN-g), SEB assay: -1.05 log10 of antibody concentration

B4: VSTB95 (antibody, human IgG1, V domains shown)
VH: EVQLVESGGGLVQPGGSLRLSCAASGFTFRNYGMSWVRQAPGKGLEWVASIISGGSYTYYPDSVKGRFTISRDNAKNSLYLQMNSLRAEDTAVYYCARIYDHDGDYYAMDYWGQGTTVTVSS
VL: DIVMTQSPLSLPVTPGEPASISCRSSQSIVHSNGNTYLEWYLQKPGQSPQLLIYKVSNRFSGVPDRFSGSGSGTDFTLKISRVEAEDVGVYYCFQGSHVPWTFGQGTKLEIK
IC50, CPM (proliferation), SEB assay: -1.12 log10 of antibody concentration
IC50, Gamma (IFN-g), SEB assay: 0.05 log10 of antibody concentration

Now from value to binder:

IC50, CPM (proliferation), SEB assay: -1.44 log10 of antibody concentration
IC50, Gamma (IFN-g), SEB assay: -0.35 log10 of antibody concentration
B1: VSTB116 (antibody, V domains shown)
VH: QVQLVQSGAEVKKPGSSVKVSCKASGGTFSSYAISWVRQAPGQGLEWMGGIIPIFGTANYAQKFQGRVTITADESTSTAYMELSSLRSEDTAVYYCARSSYGWSYEFDYWGQGTLVTVSS
VL: DIQMTQSPSSLSASVGDRVTITCRASQSINTNLNWYQQKPGKAPKLLIYAASSLQSGVPSRFSGSGSGTDFTLTISSLQPEDFATYYCQQARDTPITFGQGTKVEIKR

IC50, CPM (proliferation), SEB assay: -0.74 log10 of antibody concentration
IC50, Gamma (IFN-g), SEB assay: 1.69 log10 of antibody concentration
B2: VSTB50 (antibody, human IgG1, V domains shown)
VH: QVQLVQSGSELKKPGASVKVSCKASGYTFTNYGLNWVRQAPGQGLEWMGWINPYTGEPTYADDFKGRFVFSLDTSVSTAYLQICSLKAEDTAVYYCAREGYGNYIFPYWGQGTLVTVSS
VL: DIVMTQTPLSLSVTPGQPASISCRASESVDTYANSLMHWYLQKPGQPPQLLIYRASNLESGVPDRFSGSGSGTDFTLKISRVEAEDVGVYYCQQTNEDPRTFGQGTKLEIK

Source: WO2017175058A1 (dated 2017)
